Numbering of substitutions follows the chain as printed. In names and notes the source's numbering stands.
B1: VHH-B11 (monovalent camelid nanobody against hPCSK9) FR1:Q1E; FR1:Q5L; FR1:S11L; FR1:A14P; FR1:T23A; FR1:V24A; FR3:V87L; FR3:K95R; FR3:P96A; FR3:M101V (protein)
chain: EVQLLESGGGLVQPGGSLRLSCAASGYTYSSNCMGWFRQAPGKEHEGVASIYIGGGSTYYADSVKGRFTISQDNAKNTLYLQMNSLRAEDTAVYYCAVGCQGLVDFGYWDQGTQVTVSS
B2: VHH-B11 (monovalent camelid nanobody against hPCSK9) FR1:Q1E; FR1:Q5L; FR1:S11L; FR1:A14P; FR1:T23A; FR1:V24A; FR2:A54S; FR3:V87L; FR3:K95R; FR3:P96A; FR3:M101V (protein)
chain: B1 chain with A49S
B3: VHH-B11 (monovalent camelid nanobody against hPCSK9) FR1:Q1E; FR1:Q5L; FR1:S11L; FR1:A14P; FR2:A54S; FR3:Q80R; FR3:A83S; FR3:V87L; FR3:K95R; FR3:P96A; FR3:M101V (protein)
chain: B1 chain with A23T, A24V, A49S, Q72R, A75S
B4: VHH-B11 (monovalent camelid nanobody against hPCSK9) FR1:Q1E; FR1:Q5L; FR1:S11L; FR1:A14P; FR1:T23A; FR1:V24A; FR2:A54S; FR3:A83S; FR3:K95R; FR3:P96A; FR3:M101V (protein)
chain: B1 chain with A49S, A75S, L79V
B5: VHH-B11 (monovalent camelid nanobody against hPCSK9) FR1:Q1E; FR1:Q5L; FR1:S11L; FR1:A14P; FR1:T23A; FR1:V24A; FR2:A54S; FR3:A83S; FR3:V87L; FR3:K95R; … (protein)
chain: B1 chain with A49S, A75S

These binders were tested against recombinant human proprotein convertase subtilisin/kexin 9 (hPCSK9), his-tagged, Q8NBP7 (assay: SPR). Settings: chain shown with the change; 25 ℃; parent: ~5.013.
Chain of recombinant human proprotein convertase subtilisin/kexin 9 (hPCSK9), his-tagged, Q8NBP7 (Q8NBP7 153-692): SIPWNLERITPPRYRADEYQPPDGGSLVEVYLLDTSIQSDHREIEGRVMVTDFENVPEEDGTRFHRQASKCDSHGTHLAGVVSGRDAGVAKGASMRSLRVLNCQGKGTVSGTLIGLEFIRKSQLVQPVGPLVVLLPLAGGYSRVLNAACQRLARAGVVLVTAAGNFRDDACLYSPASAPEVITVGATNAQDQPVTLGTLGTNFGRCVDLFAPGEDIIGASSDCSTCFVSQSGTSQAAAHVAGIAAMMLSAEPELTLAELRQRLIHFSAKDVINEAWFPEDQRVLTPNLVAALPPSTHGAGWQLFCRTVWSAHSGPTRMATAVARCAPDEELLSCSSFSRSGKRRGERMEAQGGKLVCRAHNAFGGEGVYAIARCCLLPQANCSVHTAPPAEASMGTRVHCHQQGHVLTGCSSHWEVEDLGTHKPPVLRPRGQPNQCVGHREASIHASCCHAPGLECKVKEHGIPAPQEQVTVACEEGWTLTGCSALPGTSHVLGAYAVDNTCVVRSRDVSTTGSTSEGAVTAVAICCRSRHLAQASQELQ

Row | Binder | Kd
1 | B1 | 3.22 nM
2 | B2 | > 1000 nM
3 | B3 | 7.99 nM
4 | B4 | 11.3 nM
5 | B5 | > 1000 nM

From paper PMC9288512
